Biological target: CD64 (high affinity immunoglobulin gamma Fc receptor I) (human, UniProt P12314 16-374)
Assay: cell-based or functional assay

Sequence of CD64 (high affinity immunoglobulin gamma Fc receptor I) (P12314 16-374, form in doubt): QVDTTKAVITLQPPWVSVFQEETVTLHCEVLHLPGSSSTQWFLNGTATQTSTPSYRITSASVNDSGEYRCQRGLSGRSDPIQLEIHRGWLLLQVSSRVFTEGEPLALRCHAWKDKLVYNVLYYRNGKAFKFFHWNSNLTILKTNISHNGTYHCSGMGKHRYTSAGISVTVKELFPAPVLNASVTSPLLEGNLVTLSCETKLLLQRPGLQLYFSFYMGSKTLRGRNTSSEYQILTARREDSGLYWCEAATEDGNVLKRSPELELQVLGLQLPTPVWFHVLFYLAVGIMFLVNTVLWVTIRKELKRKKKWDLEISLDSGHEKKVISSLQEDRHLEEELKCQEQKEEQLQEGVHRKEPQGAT

B1: CD64-BB-m22 CAR (CD64 CAR containing the m22 scFv and a 4-1BB costimulatory domain) (other)
chain: EVQLVESGGGLVKPGGSLRLSCVASGFIFSDNYMYWVRQTPEKRLEWVATISDGGSYTYYPDSVKGRFTISRDNAKNNLYLQMSSLKSEDTAIYYCARGYYRYEGAMDYWGQGTSVTVSSGGGGSGGGGSGGGGSNIVMTQSPSSLAVSAGEKVTMSCKSSQSVLYSSNQKNYLAWYQQKPGQSPKLLIYWASTRESGVPDRFTGSGSGTDFTLTISSVQAEDLAVYYCHQYLSSWTFGGGTKLEIKTSTTTPAPRPPTPAPTIASQPLSLRPEACRPAAGGAVHTRGLDFACDIYIWAPLAGTCGVLLLSLVITLYCKRGRKKLLYIFKQPFMRPVQTTQEEDGCSCRFPEEEEGGCELSRVKFSRSADAPAYQQGQNQLYNELNLGRREEYDVLDKRRGRDPEMGGKPRRKNPQEGLYNELQKDKMAEAYSEIGMKGERRRGKGHDGLYQGLSTATKDTYDALHMQALPPR
fold decrease in CD64+ AML cells (monocytic patient sample), flow cytometry, CAR-T with or without ven/aza: > 40 fold
fold decrease in viable AML cells (mixed monocytic/primitive patient sample), flow cytometry after 48 hours with CAR-T cells alone: 4.2 fold

From patent US20260034217A1 (REGENTS OF THE UNIVERSITY OF COLORADO A BODY CORPORATE, published 2026)
